This passage reports Kd results from article doi:10.1101/2020.05.05.078782.

pKd: −log10 of the molar value.

This test concerns the target BD1 bromodomain construct (residues 44-168) of human Brd4 (human) (UniProt O60885). Put plainly: SPR. For orientation: Surface plasmon resonance follows binding to a sensor surface in real time, without labels.

On to “YFV-C (residues 1-11) peptide acetylated at lysine 4”, for which the pKd was 3.44. For “YFV-C (residues 1-11) peptide acetylated at lysine 8” the value was 3.27.

A word on the pKd: it is −log10 of the Kd, conventionally taken in molar units.
